Measured values reported in IntAct's records for PubMed 16000169.

B1: DNA polymerase delta subunit 3 (Homo sapiens), Q15054 (parent)
chain: MADQLYLENIDEFVTDQNKIVTYKWLSYTLGVHVNQAKQMLYDYVERKRKENSGAQLHVTYLVSGSLIQNGHSCHKVAVVREDKLEAVKSKLAVTASIHVYSIQKAMLKDSGPLFNTDYDILKSNLQNCSKFSAIQCAAAVPRAPAESSSSSKKFEQSHLHMSSETQANNELTTNGHGPPASKQVSQQPKGIMGMFASKAAAKTQETNKETKTEAKEVTNASAAGNKAPGKGNMMSNFFGKAAMNKFKVNLDSEQAVKEEKIVEQPTVSVTEPKLATPAGLKKSSKKAEPVKVLQKEKKRGKRVALSDDETKETENMRKKRRRIKLPESDSSEDEVFPDSPGAYEAESPSPPPPPSPPLEPVPKTEPEPPSVKSSSGENKRKRKRVLKSKTYLDGEGCIVTEKVYESESCTDSEEELNMKTSSVHRPPAMTVKKEPREERKGPKKGTAALGKANRQVSITGFFQRK

Variants of: B1
Conditions: with pcna_human PCNA

For MADQLYLENIDEFVTDQNKIVTYKWLSYTLGVHVNQAKQMLYDYVERKRKENSGAQLHVTYLVSGSLIQNGHSCHKVAVVREDKLEAVKSKLAVTASIHVYSIQKAMLKDSGPLFNTDYDILKSNLQNCSKFSAIQCAAAVPRAPAESSSSSKKFEQSHLHMSSETQANNELTTNGHGPPASKQVSQQPKGIMGMFASKAAAKTQETNKETKTEAKEVTNASAAGNKAPGKGNMMSNFFGKAAMNKFKVNLDSEQAVKEEKIVEQPTVSVTEPKLATPAGLKKSSKKAEPVKVLQKEKKRGKRVALSDDETKETENMRKNGGRIKLPESDSSEDEVFPDSPGAYEAESPSPPPPPSPPLEPVPKTEPEPPSVKSSSGENKRKRKRVLKSKTYLDGEGCIVTEKVYESESCTDSEEELNMKTSSVHRPPAMTVKKEPREERKGPKKGTAALGKANRQVSITGFFQRK [K320N;R321G;R322G], which “effect of a mutation on the interaction” value is on record?
The value was “disrupting interaction”.
